Experimental data: publication PMC6400067

Biological target: phosphoenolpyruvate carboxylase (Ppc; cce_3822) (Cyanothece ATCC 51142 (endogenous in the cells))
Test: SEC

“phosphoenolpyruvate carboxylase (Ppc; cce_3822) (enzyme)” was tested, and the Rapp (Mapp / Mmono) was 4.6.
